Measurements taken from paper PMC2190711.

Tests used:
Assay in all cases: CD
spZαE3L (swinepox virus) = test system: spZαE3L (swinepox virus)
[1] = test system: lsZαE3L (lumpy skin disease virus)
hZαADAR1 (Homo sapiens) = test system: hZαADAR1 (Homo sapiens)

d(CG)n DNA for CD B-to-Z conversion
binding signal (% B-to-Z conversion) (spZαE3L (swinepox virus)): 65
binding signal (% B-to-Z conversion) [1]: 90
binding signal (% B-to-Z conversion) (hZαADAR1 (Homo sapiens)): 100
